Test results reported in patent publication US20220363757A1 (SYMPHOGEN A S, published 2022).

T1: human LAG-3 domain 1-2 Fc fusion, point mutation #2 Q41A (human, UniProt P18627 23-266)
T1 construct: not shown: human IgG1 Fc, AA P101-K330
T1 sequence: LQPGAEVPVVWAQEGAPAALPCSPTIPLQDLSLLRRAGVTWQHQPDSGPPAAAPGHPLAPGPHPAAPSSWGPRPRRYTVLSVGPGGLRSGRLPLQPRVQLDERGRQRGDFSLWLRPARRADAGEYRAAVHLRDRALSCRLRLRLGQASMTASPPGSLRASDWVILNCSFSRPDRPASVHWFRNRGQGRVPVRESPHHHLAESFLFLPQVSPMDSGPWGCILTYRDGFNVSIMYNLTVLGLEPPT

T2: human LAG-3 domain 1-2 Fc fusion, point mutation #67 R127A (human, UniProt P18627 23-266)
T2 construct: not shown: human IgG1 Fc, AA P101-K330
T2 sequence: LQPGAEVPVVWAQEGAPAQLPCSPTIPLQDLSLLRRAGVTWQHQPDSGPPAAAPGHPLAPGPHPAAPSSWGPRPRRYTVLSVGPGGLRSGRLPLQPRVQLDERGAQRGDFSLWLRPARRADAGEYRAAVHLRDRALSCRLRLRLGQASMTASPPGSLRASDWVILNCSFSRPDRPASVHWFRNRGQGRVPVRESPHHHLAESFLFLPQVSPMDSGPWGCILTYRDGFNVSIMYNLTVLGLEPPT

T3: human LAG-3 domain 1-2 Fc fusion, point mutation #71 D131A (human, UniProt P18627 23-266)
T3 construct: not shown: human IgG1 Fc, AA P101-K330
T3 sequence: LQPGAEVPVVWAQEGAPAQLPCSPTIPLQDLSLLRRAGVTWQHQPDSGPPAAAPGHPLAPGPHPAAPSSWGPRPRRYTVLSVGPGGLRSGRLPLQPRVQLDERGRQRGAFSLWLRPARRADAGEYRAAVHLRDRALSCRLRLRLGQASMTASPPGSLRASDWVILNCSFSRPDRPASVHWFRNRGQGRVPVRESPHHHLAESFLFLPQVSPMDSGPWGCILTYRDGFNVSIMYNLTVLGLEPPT

T4: human LAG-3 domain 1-2 Fc fusion, point mutation #80 R163A (human, UniProt P18627 23-266)
T4 construct: not shown: human IgG1 Fc, AA P101-K330
T4 sequence: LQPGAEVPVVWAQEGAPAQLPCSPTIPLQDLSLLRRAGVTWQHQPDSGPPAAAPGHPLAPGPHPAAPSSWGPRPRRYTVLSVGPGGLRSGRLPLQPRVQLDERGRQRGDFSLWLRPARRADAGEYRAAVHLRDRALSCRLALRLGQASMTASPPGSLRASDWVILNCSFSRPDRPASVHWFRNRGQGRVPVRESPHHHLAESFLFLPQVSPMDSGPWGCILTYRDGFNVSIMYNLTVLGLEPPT

T5: human LAG-3 domain 1-2 Fc fusion, point mutation #52 G108A (human, UniProt P18627 23-266)
T5 construct: not shown: human IgG1 Fc, AA P101-K330
T5 sequence: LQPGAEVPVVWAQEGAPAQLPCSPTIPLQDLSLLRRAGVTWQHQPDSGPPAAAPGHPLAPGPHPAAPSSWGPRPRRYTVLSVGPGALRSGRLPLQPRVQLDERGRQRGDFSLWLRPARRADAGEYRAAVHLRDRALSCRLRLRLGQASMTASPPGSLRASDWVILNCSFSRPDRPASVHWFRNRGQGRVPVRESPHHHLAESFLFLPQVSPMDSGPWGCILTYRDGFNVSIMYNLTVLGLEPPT

T6: human LAG-3 domain 1-2 Fc fusion, point mutation #64 E124A (human, UniProt P18627 23-266)
T6 construct: not shown: human IgG1 Fc, AA P101-K330
T6 sequence: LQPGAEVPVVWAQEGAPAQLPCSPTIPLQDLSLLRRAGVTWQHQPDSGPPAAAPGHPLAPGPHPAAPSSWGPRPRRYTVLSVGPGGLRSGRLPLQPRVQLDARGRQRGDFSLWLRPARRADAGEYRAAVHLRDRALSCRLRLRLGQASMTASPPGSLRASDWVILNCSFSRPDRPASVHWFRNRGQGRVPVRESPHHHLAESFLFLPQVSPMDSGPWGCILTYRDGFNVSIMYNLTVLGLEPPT

T7: human LAG-3 domain 1-2 Fc fusion, point mutation #46 Y99A (human, UniProt P18627 23-266)
T7 construct: not shown: human IgG1 Fc, AA P101-K330
T7 sequence: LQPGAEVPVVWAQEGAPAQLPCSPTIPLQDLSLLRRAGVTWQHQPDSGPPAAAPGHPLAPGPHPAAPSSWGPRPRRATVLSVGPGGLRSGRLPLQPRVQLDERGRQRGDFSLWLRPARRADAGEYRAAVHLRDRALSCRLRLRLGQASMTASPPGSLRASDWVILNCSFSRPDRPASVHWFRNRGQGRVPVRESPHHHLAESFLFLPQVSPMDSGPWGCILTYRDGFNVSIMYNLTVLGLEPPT

T8: human LAG-3 domain 1-2 Fc fusion, point mutation #22 A75S (human, UniProt P18627 23-266)
T8 construct: not shown: human IgG1 Fc, AA P101-K330
T8 sequence: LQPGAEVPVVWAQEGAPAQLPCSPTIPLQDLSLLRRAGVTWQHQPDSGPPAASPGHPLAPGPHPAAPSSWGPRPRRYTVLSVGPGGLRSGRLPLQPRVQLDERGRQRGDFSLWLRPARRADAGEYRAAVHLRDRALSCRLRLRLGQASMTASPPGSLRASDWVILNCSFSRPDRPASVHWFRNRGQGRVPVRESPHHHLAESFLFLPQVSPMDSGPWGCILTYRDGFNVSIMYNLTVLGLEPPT

T9: human LAG-3 domain 1-2 Fc fusion, point mutation #79 S159A (human, UniProt P18627 23-266)
T9 construct: not shown: human IgG1 Fc, AA P101-K330
T9 sequence: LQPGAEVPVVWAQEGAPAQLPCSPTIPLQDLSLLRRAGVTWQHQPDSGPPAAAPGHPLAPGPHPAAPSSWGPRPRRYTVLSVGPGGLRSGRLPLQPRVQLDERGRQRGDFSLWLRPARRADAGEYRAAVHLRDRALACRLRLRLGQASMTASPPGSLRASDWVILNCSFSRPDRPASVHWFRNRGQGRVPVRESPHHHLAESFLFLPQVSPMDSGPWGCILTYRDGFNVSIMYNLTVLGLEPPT


Experiments:
Assay in all cases: SPR, Fab over captured mutant LAG-3-Fc;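 further: fc fusion variants captured on anti-human IgG Fc sensor, Fab injected with association then dissociation phases, KD obtained from Langmuir one-to-one fit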
[1] = target: T1, human LAG-3 domain 1-2 Fc fusion, point …
[2] = target: T2, human LAG-3 domain 1-2 Fc fusion, point …
[3] = target: T3, human LAG-3 domain 1-2 Fc fusion, point …
[4] = target: T4, human LAG-3 domain 1-2 Fc fusion, point …
[5] = target: T5, human LAG-3 domain 1-2 Fc fusion, point …
[6] = target: T6, human LAG-3 domain 1-2 Fc fusion, point …
[7] = target: T7, human LAG-3 domain 1-2 Fc fusion, point …
[8] = target: T8, human LAG-3 domain 1-2 Fc fusion, point …
[9] = target: T9, human LAG-3 domain 1-2 Fc fusion, point …

KD mutant/KD wild type [1]	KD mutant/KD wild type [2]	KD mutant/KD wild type [3]	KD mutant/KD wild type [4]	KD mutant/KD wild type [5]	KD mutant/KD wild type [6]	KD mutant/KD wild type [7]	KD mutant/KD wild type [8]	KD mutant/KD wild type [9]	binding result [1]	binding result [3]	binding result [4]	binding result [6]	binding result [7]	Binder
3.4 fold	0.6 fold	4.2 fold	2.5 fold	1 fold	1.8 fold	4.1 fold	0.9 fold	0.7 fold						Fab fragment of antibody 15532 (Fab, V domains shown, not shown: a dimerising Fc or GST, monomeric Fab made by GingisKHAN digestion of the IgG1) VH: QVQLQQWGAGLLRPSETLSLTCAVYGESFSGYYWNWIRQPPGKGLEWIGEINHSGSTNYNPSLKSRVTISVDTSKTQFSLKLSSVTAADTAVYYCARGWDLLDWNDYWNEYWGQGTLVTVSS VL: EIVLTQSPATLSLSPGERATLSCRASQSVSSYLAWYQQKPGQAPRLLIYDASNRATGIPARFSGSGSGTDFTLTISSLEPEDFAVYYCQQRSNWPLTFGGGTKVEIKR
	0.9 fold			0.3 fold			0.8 fold	0.9 fold	no binding (tested: 300 nM)	no binding (tested: 300 nM)	no binding (tested: 300 nM)	no binding (tested: 300 nM)	no binding (tested: 300 nM)	Fab fragment of antibody 15431 (Fab, V domains shown, not shown: a dimerising Fc or GST, monomeric Fab made by GingisKHAN digestion of the IgG1) VH: QVQLQQSGPGLVKPSQTLSLTCAISGDSVSSNSAAWNWIRQSPSRGLEWLGRTYYRSKWYNDYAVSVKSRITINPDTSKNQFSLQLNSVTPEDTAVYYCARDDDWNDFDYWGQGTLVTVSS VL: EIVLTQSPATLSLSPGERATLSCRASQSVSSYLAWYQQKPGQAPRLLIYDASNRATGIPARFSGSGSGTDFTLTISSLEPEDFAVYYCQQRSNWPLTFGGGTKVEIKR
0.7 fold	0.9 fold	0.6 fold	0.6 fold	0.5 fold	0.8 fold	0.5 fold	0.8 fold	0.7 fold						Fab fragment of antibody 15011 (Fab, V domains shown, not shown: a dimerising Fc or GST, monomeric Fab made by GingisKHAN digestion of the IgG1) VH: EVQLLESGGGLVQPGGSLRLSCAASGFDFRSYAMMWVRQAPGKGLEWVGGINGEVGGSNTYYAPAVKGRATISRDNSKNTLYLQMNSLRAEDTAVYYCVKGAGACGICNDDIDAWGQGTLVTVSS VL: SYELTQDPAVSVALGQTVRITCSGAGSYAGSYYYGWHQQKPGQAPVTVIYDNDKRPSNIPDRFSGSSSGNTASLTITGAQAEDEADYYCGSTNDNDDGGLFGSGTKVTVLG
	0.5 fold			0.4 fold			0.7 fold	0.3 fold	no binding (tested: 300 nM)	no binding (tested: 300 nM)	no binding (tested: 300 nM)	no binding (tested: 300 nM)	no binding (tested: 300 nM)	Fab fragment of antibody 15572 (Fab, V domains shown, not shown: a dimerising Fc or GST, monomeric Fab made by GingisKHAN digestion of the IgG1) VH: QLQLQESGPGLVKPSETLSLTCTVSGDSISSSSYYWGWIRQPPGKGLEWIGSIFYSGNTYYNPSLKSRVTISVDTSKNQFSLKLSSVTAADTAVYYCAREDDFLTDYYGAFDIWGQGTMVTVSS VL: not shown
